Measurements: US8147838B2, “Peptide” (priority 2005, dated 2012)

Columns and labels:
Settings in all cases: percent of positive control peptide binding; peptide at 1.11×10^−5M
[1] = target: MHC class I allele A*0201 (A2) (Homo sapiens, UniProt P04439, D140Y/D185E/D98H/E176V/E277Q/G131W/G231S/I119V/I121R/I166T/I218V/L300P/L318F/N151K/N90K/P208A/P217A/Q86G/Q94H/R138H/R169H/T345S); test: iTopia peptide binding assay, A*0201
Method: (§1) The 9 mers were tested for Peptide Binding, Off Rate and Affinity using iTopia Epitope Discovery System in accordance with the manufacturer's instructions. Briefly, 96 well microtitre plates coated with MHC molecules representing different MHC alleles are used to identify candidate peptides. […] Determinations are performed in duplicate using an ELISA plate reader and included allele specific positive controls.
(§2) i) Peptide Binding—This assay measures the ability of individual peptides to bind to the MHC molecules under standardized optimal binding conditions. The assay is performed for all the test peptides across the selected MHC alleles. The test peptides identified as “binders” are characterized further in terms of affinity and dissociation experiments.
(§3) Following a period of binding under optimal conditions, excess antibody is removed and a measurement of total fluorescence taken (D).
(§4) The binding of the test peptides to the MHC molecules was performed at 1.11×10^−5M of peptide under optimal, standardised test conditions. A control peptide was run in parallel on the same plate and at the same concentration as the test peptides.
(§5) The level of binding is expressed as a percent of positive control peptide binding for each allele.

[2] = target: MHC class I allele A*0101 (A1) (Homo sapiens, UniProt P04439, A114D/A174V/A182V/D101N/D185E/E176A/E190D/L180R/Q94H/R68K/S129P/T187R/V100A/V91M/W191G); test: iTopia peptide binding assay, A*0101
Method: as §1, §2, §3, §4, §5

[3] = target: MHC class I allele B*0702 (B7) (Homo sapiens, UniProt P01889); test: iTopia peptide binding assay, B*0702
Method: as §1, §2, §3, §4, §5

[4] = target: MHC class I allele A*0301 (A3) (Homo sapiens, UniProt P04439); test: iTopia peptide binding assay, A*0301
Method: as §1, §2, §3, §4, §5

Sequence | Peptide binding, MHC Class I Molecule A*0201 [1] | Peptide binding, MHC Class I Molecule A*0101 [2] | Peptide binding, MHC Class I Molecule B*0702 [3] | Peptide binding, MHC Class I Molecule A*0301 [4]
DCHMADMVT [Peptide 150] | 7 % of control | 0 % of control | 5 % of control | 3 % of control
VKCVNRNLT [Peptide 38] | 3 % of control | 6 % of control | 2 % of control | 0 % of control
ESLHLEDNA [Peptide 131] | 8 % of control | 2 % of control | 0 % of control | 0 % of control
SFRNLTHLE [Peptide 127] | 1 % of control | 1 % of control | 0 % of control | 1 % of control
RDHMEGYHY [Peptide 197] | 6 % of control | 11 % of control | 5 % of control | 3 % of control
DNALKVLHN [Peptide 134] | 5 % of control | 1 % of control | 0 % of control | 0 % of control
TDLPAYVRN [Peptide 44] | 3 % of control | 7 % of control | 2 % of control | 1 % of control
IVPPEDERQ [Peptide 92] | 12 % of control | 6 % of control | 3 % of control | 3 % of control
VSSSSPTSS [Peptide 15] | 9 % of control | 3 % of control | 2 % of control | 2 % of control
VSAPSPLVE [Peptide 85] | 13 % of control | 3 % of control | 3 % of control | 7 % of control
INADPRLTN [Peptide 203] | 3 % of control | 0 % of control | 4 % of control | 1 % of control
LTCAYPEKM [Peptide 161] | 40 % of control | 16 % of control | 5 % of control | 8 % of control
PAAGDGRLR [Peptide 5] | 5 % of control | 4 % of control | 5 % of control | 4 % of control
AALNLSGSR [Peptide 61] | 6 % of control | 3 % of control | 3 % of control | 13 % of control
PDQCPALCE [Peptide 30] | 3 % of control | 5 % of control | 1 % of control | 0 % of control
RQLDLSHNP [Peptide 73] | 8 % of control | 2 % of control | 4 % of control | 2 % of control
PRLTNLSSN [Peptide 205] | 8 % of control | 2 % of control | 11 % of control | 2 % of control
YHYRYEINA [Peptide 200] | 7 % of control | 0 % of control | 5 % of control | 1 % of control

Sequence | Peptide binding, MHC Class I Molecule A*0201 [1] | Peptide binding, MHC Class I Molecule A*0101 [2] | Peptide binding, MHC Class I Molecule B*0702 [3] | Peptide binding, MHC Class I Molecule A*0301 [4]
LHLEDNALK [Peptide 132] | 4 % of control | 4 % of control | 0 % of control | 5 % of control
PWVCDCHMA [Peptide 148] | 0 % of control | 0 % of control | 0 % of control | 0 % of control
LCECSEAAR [Peptide 33] | 8 % of control | 3 % of control | 0 % of control | 0 % of control
SLRQLDLSH [Peptide 72] | 6 % of control | 0 % of control | 13 % of control | 11 % of control
HLESLHLED [Peptide 130] | 3 % of control | 4 % of control | 2 % of control | 2 % of control
RTVKCVNRN [Peptide 37] | 12 % of control | 7 % of control | 3 % of control | 12 % of control
AFSGSNASV [Peptide 81] | 55 % of control | 2 % of control | 14 % of control | 2 % of control
ERQNRSFEG [Peptide 95] | 1 % of control | 0 % of control | 1 % of control | 1 % of control
DLDCDPILP [Peptide 171] | 0 % of control | 0 % of control | 3 % of control | 4 % of control
CAYPEKMRN [Peptide 162] | 11 % of control | 0 % of control | 3 % of control | 4 % of control
SEAARTVKC [Peptide 35] | 1 % of control | 5 % of control | 0 % of control | 0 % of control
HNPLADLSP [Peptide 76] | 7 % of control | 5 % of control | 5 % of control | 3 % of control
AGRALQGLR [Peptide 103] | 2 % of control | 0 % of control | 1 % of control | 2 % of control
LPSLRQLDL [Peptide 71] | 27 % of control | 0 % of control | 82 % of control | 0 % of control
ECSEAARTV [Peptide 34] | 4 % of control | 2 % of control | 0 % of control | 0 % of control
DEVRAGAFE [Peptide 66] | 9 % of control | 6 % of control | 12 % of control | 7 % of control
PFAFSGSNA [Peptide 80] | 13 % of control | 0 % of control | 7 % of control | 3 % of control
SAQPPLPDQ [Peptide 27] | 13 % of control | 2 % of control | 3 % of control | 0 % of control
